This is an account of results in the RNAGym collection of RNA variant scans (doi:10.7554/elife.80360).

To fix the notation:
B1: Hairpin Ribozyme (parent)
chain: GUCCUCUUUCACGUGCGCGUGAAAGAGAGAAGUGAACCAGAGAAACACACGUUGUGGUAUAUUACCUGGUA

The variants in the data set derive from B1. Nature of the data set: self-cleavage, relative activity (ratio to wild type); higher = more cleavage; co-transcriptional.
Regarding GUCCUCUUUCACGUGCGCGUGAAAGAGAGAAGUGAACCAGAGAAGCACACGUUGUGGUAAAUUACCUGGUA [A45G U60A], the self-cleavage came to 0.105.

Consider GUCCUCUUUCACGUGCGCGUGAAAGAGAGAAGUGAACCAGAGAAGCACACGUUGUUGUAUAUUACCUGGUA [A45G G56U], for which the self-cleavage was determined as 0.131.

GUCCUCUUUCACGUGCGCGUGAAAGAGAGAAGUGAACCAGAGAAGGACACGUUGUGGUAUAUUACCUGGUA [A45G C46G]: the self-cleavage amounted to 0.181.

For GUCCUCUUUCACGUGCGCGUGAAAGAGAGAAGUGAACCAGAGAAGCACACGUUGUGGUAUAUUACCUGGUG [A45G A71G], the self-cleavage was found to be 0.269.

Take GUCCUCUUUCACGUGCGCGUGAAAGAGAGAAGUGAACCAGAGAAGCACACGUUGUGGUAUAUUACCUGGUU [A45G A71U]: the self-cleavage is 0.0799.

For GUCCUCUUUCACGUGCGCGUGAAAGAGAGAAGUGAACCAGAGAAGCACACGUUGUGGUAUAUUACCUCGUA [A45G G68C], the self-cleavage came out at 0.136.

Turning to GUCCUCUUUCACGUGCGCGUGAAAGAGAGAAGUGAACCAGAGAAGCAUACGUUGUGGUAUAUUACCUGGUA [A45G C48U], the self-cleavage amounted to 0.0892.

Regarding GUCCUCUUUCACGUGCGCGUGAAAGAGAGAAGUGAACCAGAGAAGCAGACGUUGUGGUAUAUUACCUGGUA [A45G C48G], the self-cleavage worked out at 0.113.

For the variant GUCCUCUUUCACGUGCGCGUGAAAGAGAGAAGUGAACCAGAGAAGCACACGUUGUGGUAUAUUACCGGGUA [A45G U67G], the self-cleavage stood at 0.0311.

For the variant GUCCUCUUUCACGUGCGCGUGAAAGAGAGAAGUGAACCAGAGAAGCACACGUUGUGUUAUAUUACCUGGUA [A45G G57U], the self-cleavage turned out to be 0.175.

For the variant GUCCUCUUUCACGUGCGCGUGAAAGAGAGAAGUGAACCAGAGAAGCACACGUUGUGGUAUAUUACUUGGUA [A45G C66U], the self-cleavage was found to be 0.218.

For GUCCUCUUUCACGUGCGCGUGAAAGAGAGAAGUGAACCAGAGAAGCACACGUUGCGGUAUAUUACCUGGUA [A45G U55C], the self-cleavage was determined as 0.124.

As for GUCCUCUUUCACGUGCGCGUGAAAGAGAGAAGUGAACCAGAGAAGCACACGUUGGGGUAUAUUACCUGGUA [A45G U55G], the self-cleavage stood at 0.

Turning to GUCCUCUUUCACGUGCGCGUGAAAGAGAGAAGUGAACCAGAGAAUCACACGUUGUGGUUUAUUACCUGGUA [A45U A59U], the self-cleavage amounted to 0.154.

For GUCCUCUUUCACGUGCGCGUGAAAGAGAGAAGUGAACCAGAGAAUCACACGUUGUGGUGUAUUACCUGGUA [A45U A59G], the self-cleavage worked out at 0.0526.

As for GUCCUCUUUCACGUGCGCGUGAAAGAGAGAAGUGAACCAGAGAAUCACACGUUGUGGUCUAUUACCUGGUA [A45U A59C], the self-cleavage came out at 0.285.

For the variant GUCCUCUUUCACGUGCGCGUGAAAGAGAGAAGUGAACCAGAGAAGCACACGUUAUGGUAUAUUACCUGGUA [A45G G54A], the self-cleavage was 0.218.

On to GUCCUCUUUCACGUGCGCGUGAAAGAGAGAAGUGAACCAGAGAAGCACACGUUUUGGUAUAUUACCUGGUA [A45G G54U], for which the self-cleavage stood at 0.2.

Consider GUCCUCUUUCACGUGCGCGUGAAAGAGAGAAGUGAACCAGAGAAUCACACGUUGUGGUAUAUUACCUGGUC [A45U A71C], for which the self-cleavage was determined as 0.286.

GUCCUCUUUCACGUGCGCGUGAAAGAGAGAAGUGAACCAGAGAAUCACACGUUGUGGUAUAUUACCUGGUG [A45U A71G]: the self-cleavage was found to be 0.189.

Consider GUCCUCUUUCACGUGCGCGUGAAAGAGAGAAGUGAACCAGAGAAUCACUCGUUGUGGUAUAUUACCUGGUA [A45U A49U], for which the self-cleavage came to 0.17.

For the variant GUCCUCUUUCACGUGCGCGUGAAAGAGAGAAGUGAACCAGAGAAUCACACGUUGUGGUAUAUUGCCUGGUA [A45U A64G], the self-cleavage was found to be 0.16.

On to GUCCUCUUUCACGUGCGCGUGAAAGAGAGAAGUGAACCAGAGAAUCACACGUUGUGGUAUAUUUCCUGGUA [A45U A64U], for which the self-cleavage came to 0.0728.

Take GUCCUCUUUCACGUGCGCGUGAAAGAGAGAAGUGAACCAGAGAAUCCCACGUUGUGGUAUAUUACCUGGUA [A45U A47C]: the self-cleavage stood at 0.132.

In the case of GUCCUCUUUCACGUGCGCGUGAAAGAGAGAAGUGAACCAGAGAAUCGCACGUUGUGGUAUAUUACCUGGUA [A45U A47G], the self-cleavage stood at 0.178.

As to GUCCUCUUUCACGUGCGCGUGAAAGAGAGAAGUGAACCAGAGAAUCUCACGUUGUGGUAUAUUACCUGGUA [A45U A47U], the self-cleavage worked out at 0.0501.

With GUCCUCUUUCACGUGCGCGUGAAAGAGAGAAGUGAACCAGAGAAGCACACGUUGUGGUAUAUAACCUGGUA [A45G U63A], the self-cleavage came out at 0.124.

As to GUCCUCUUUCACGUGCGCGUGAAAGAGAGAAGUGAACCAGAGAAGCACACGUUGUGGUAUAUUACCUGGGA [A45G U70G], the self-cleavage came to 0.137.

As to GUCCUCUUUCACGUGCGCGUGAAAGAGAGAAGUGAACCAGAGAAGCACACGUUGUGGUAUAUUACCUGGAA [A45G U70A], the self-cleavage was 0.184.

Turning to GUCCUCUUUCACGUGCGCGUGAAAGAGAGAAGUGAACCAGAGAAGCACACGUCGUGGUAUAUUACCUGGUA [A45G U53C], the self-cleavage is 0.4.

As for GUCCUCUUUCACGUGCGCGUGAAAGAGAGAAGUGAACCAGAGAAGCACACGUGGUGGUAUAUUACCUGGUA [A45G U53G], the self-cleavage is 0.108.

In the case of GUCCUCUUUCACGUGCGCGUGAAAGAGAGAAGUGAACCAGAGAAGCACACGUUGUGGGAUAUUACCUGGUA [A45G U58G], the self-cleavage is 0.199.

GUCCUCUUUCACGUGCGCGUGAAAGAGAGAAGUGAACCAGAGAAGCACACUUUGUGGUAUAUUACCUGGUA [A45G G51U]: the self-cleavage is 0.271.

Take GUCCUCUUUCACGUGCGCGUGAAAGAGAGAAGUGAACCAGAGAAGCACACGUUGUGGUAUAUUACCUGUUA [A45G G69U]: the self-cleavage came to 0.141.

With GUCCUCUUUCACGUGCGCGUGAAAGAGAGAAGUGAACCAGAGAAGCACACGUUGUGGUAUAUUACCUGAUA [A45G G69A], the self-cleavage stood at 0.117.

Regarding GUCCUCUUUCACGUGCGCGUGAAAGAGAGAAGUGAACCAGAGAAGCACACGUUGUGGUAUAUUACCUGCUA [A45G G69C], the self-cleavage amounted to 0.171.

As for GUCCUCUUUCACGUGCGCGUGAAAGAGAGAAGUGAACCAGAGAAUCACACGUUGUGGUAUUUUACCUGGUA [A45U A61U], the self-cleavage turned out to be 0.122.

Take GUCCUCUUUCACGUGCGCGUGAAAGAGAGAAGUGAACCAGAGAAUCACACGUUGUGGUAUCUUACCUGGUA [A45U A61C]: the self-cleavage turned out to be 0.0246.
